The target in this test is human IGF1R on transfected CHO cells (human), P08069. As to the kind of experiment: flow cytometry, IGFBP7-Ig on IGF1R transfected CHO cells (CHO-WT: 3.52). The conditions noted are these: remark: other sources report otherwise. Background: Flow cytometry measures light scatter and fluorescence of single cells or particles in a stream.
human IGF1R on transfected CHO cells (human), P08069, sequence (P08069 31-1367): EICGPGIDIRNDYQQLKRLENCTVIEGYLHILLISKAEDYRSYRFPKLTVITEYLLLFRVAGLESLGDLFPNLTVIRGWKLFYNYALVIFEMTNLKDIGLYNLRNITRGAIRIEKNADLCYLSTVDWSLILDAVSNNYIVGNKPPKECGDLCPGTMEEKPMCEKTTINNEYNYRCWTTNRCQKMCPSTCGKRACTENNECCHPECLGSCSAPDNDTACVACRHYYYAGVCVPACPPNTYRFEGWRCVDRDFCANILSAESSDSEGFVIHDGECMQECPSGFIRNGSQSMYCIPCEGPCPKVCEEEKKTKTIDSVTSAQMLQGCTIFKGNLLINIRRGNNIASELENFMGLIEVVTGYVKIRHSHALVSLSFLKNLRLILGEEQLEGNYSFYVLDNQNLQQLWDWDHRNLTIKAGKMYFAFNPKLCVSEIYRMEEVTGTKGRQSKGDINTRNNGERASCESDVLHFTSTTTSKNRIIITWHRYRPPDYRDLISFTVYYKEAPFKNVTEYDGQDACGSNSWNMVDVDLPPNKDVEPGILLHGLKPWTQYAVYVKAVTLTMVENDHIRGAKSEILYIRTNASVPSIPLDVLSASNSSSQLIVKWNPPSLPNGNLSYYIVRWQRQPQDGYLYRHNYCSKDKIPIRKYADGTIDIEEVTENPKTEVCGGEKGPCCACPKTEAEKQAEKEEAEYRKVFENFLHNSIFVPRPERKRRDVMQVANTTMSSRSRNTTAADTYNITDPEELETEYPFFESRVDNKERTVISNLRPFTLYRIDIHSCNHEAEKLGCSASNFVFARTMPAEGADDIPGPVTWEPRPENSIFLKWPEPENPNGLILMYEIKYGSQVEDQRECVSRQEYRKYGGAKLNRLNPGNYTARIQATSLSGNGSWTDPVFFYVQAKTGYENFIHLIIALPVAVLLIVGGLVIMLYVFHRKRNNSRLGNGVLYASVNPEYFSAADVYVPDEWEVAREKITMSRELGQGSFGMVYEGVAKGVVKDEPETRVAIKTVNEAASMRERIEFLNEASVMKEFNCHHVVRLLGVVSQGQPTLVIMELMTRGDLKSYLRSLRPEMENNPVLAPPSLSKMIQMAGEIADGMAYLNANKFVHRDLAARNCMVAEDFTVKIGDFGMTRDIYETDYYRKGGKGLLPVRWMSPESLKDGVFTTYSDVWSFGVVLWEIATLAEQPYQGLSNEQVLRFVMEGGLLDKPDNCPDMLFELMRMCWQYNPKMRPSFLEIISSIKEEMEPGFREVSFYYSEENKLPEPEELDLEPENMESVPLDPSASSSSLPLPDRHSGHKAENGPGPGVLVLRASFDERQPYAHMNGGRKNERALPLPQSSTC

B1: Human IGFBP7 (Fc-tag), Sino Biological, Q16270 27-282 (Fc fusion, not shown: a dimerising Fc or GST)
chain: SSSDTCGPCEPASCPPLPPLGCLLGETRDACGCCPMCARGEGEPCGGGGAGRGYCAPGMECVKSRKRRKGKAGAAAGGPGVSGVCVCKSRYPVCGSDGTTYPSGCQLRAASQRAESRGEKAITQVSKGTCEQGPSIVTPPKDIWNVTGAQVYLSCEVIGIPTPVLIWNKVKRGHYGVQRTELLPGDRDNLAIQTRGGPEKHEVTGWVLVSPLSKEDAGEYECHASNSQGQASASAKITVVDALHEIPVKKGEGAEL
Turning to B1, the number printed above the gate of the dot plot (share of cells in the gate; unit not given) came to 2.04.

These data come from patent publication US20220235136A1, “METHODS AND COMPOSITIONS FOR TREATING A DISEASE OR DISORDER” (YALE UNIVERSITY, priority 2019, published 2022).
